Reference: article PMC6963987

How the values were obtained:
Test in all cases: SPR; Fcγ receptors immobilised, trastuzumab glycan variants as analyte; Biacore T200; relative binding (%) normalised with trastuzumab starting material; n = 3; procedure in ref. 54
FcγRIIIa F158 = FcγRIIIa F158 (UniProt P08637)
FcγRIIIa V158 = target: FcγRIIIa V158
FcγRIIa R131 = target: FcγRIIa R131
FcγRIIb/c = FcγRIIb/c (UniProt P31994)
Chain of UniProt P31994 (P31994 43-217): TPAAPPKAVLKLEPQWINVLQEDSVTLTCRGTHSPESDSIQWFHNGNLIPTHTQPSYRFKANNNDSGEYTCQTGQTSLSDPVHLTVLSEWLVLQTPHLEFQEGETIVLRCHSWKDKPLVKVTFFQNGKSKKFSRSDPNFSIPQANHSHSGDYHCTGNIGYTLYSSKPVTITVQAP

Row | relative binding (% of trastuzumab starting material) (FcγRIIIa F158) [%] | relative binding (% of trastuzumab starting material) (FcγRIIIa V158) [%] | relative binding (% of trastuzumab starting material) (FcγRIIa R131) [%] | relative binding (% of trastuzumab starting material) (FcγRIIb/c) [%] | Substance
1 | 124 | 120 | – | – | Trastuzumab hyper-galactosylated variant G2F (antibody)
2 | 62 | – | – | – | Trastuzumab α-2,3-sialylated variant G2S2F ST3 (antibody)
3 | 150 | 121 | 130 | 162 | Trastuzumab α-2,6-sialylated variant G2S2F ST6 (antibody)
